Laboratory results reported in US20190192675A1 (Merck Sharp & Dohme, published 2019).
Non-standard residues stand in square brackets, D forms with d. No end group written: not given here. Lys(N3) = [N-]=[N+]=NCCCC[C@H](N)C(=O)O; Aib = CC(C)(N)C(=O)O

How the values were obtained:
[1] = biological target: human Glucagon receptor (GCGR) (human, UniProt P47871 26-477); experiment: cell-based or functional assay
[2] = biological target: human GLP-1 receptor (GLP1R) (human, UniProt P43220 24-463); experiment: cell-based or functional assay
Sequence of human GLP-1 receptor (GLP1R) (P43220 24-463): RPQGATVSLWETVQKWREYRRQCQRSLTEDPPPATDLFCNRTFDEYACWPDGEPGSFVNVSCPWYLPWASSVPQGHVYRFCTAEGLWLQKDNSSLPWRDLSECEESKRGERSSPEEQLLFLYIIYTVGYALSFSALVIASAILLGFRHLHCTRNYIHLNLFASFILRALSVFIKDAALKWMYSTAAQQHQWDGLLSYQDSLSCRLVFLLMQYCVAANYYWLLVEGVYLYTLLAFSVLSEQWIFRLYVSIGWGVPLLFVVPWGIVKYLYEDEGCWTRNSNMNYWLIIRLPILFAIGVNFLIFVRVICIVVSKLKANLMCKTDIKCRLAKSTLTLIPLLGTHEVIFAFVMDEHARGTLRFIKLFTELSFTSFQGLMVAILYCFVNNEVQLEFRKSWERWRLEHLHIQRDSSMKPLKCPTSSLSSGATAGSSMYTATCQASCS

HXQGTFTSDKSKYLDERAAQDFVXWLLDT (D-Ser (s) at 2; Nle(εN3) at 24; C-terminal amide) [PEP88]
hGCGR_EC50 (nM), cAMP activity assay [1]: 0.093 nM | hGLP1R EC50 (nM), cAMP activity assay [2]: 0.09 nM

H[Aib]QGTFTSDKSKYLD[Aib]RAAQDFVQWLMNTKQ[Lys(N3)]-NH2 [PEP89]
hGCGR_EC50 (nM), cAMP activity assay [1]: 3.9 nM | hGLP1R EC50 (nM), cAMP activity assay [2]: 0.044 nM

HXQGTFTSDKSKYLDERAAQDFVXWLLDT (D-Ser (s) at 2; K(γEγEC16) at 10; Nle(εN3) at 24; C-terminal amide) [PEP87]
hGCGR_EC50 (nM), cAMP activity assay [1]: 0.019 nM
